{"source": "paper PMC7243947", "about": "“AcDCXR Is a Cowpea Aphid Effector With Putative Roles in Altering Host Immunity and Physiology” (Frontiers in Plant Science, 2020)", "proteins": {"B1": {"name": "AcDCXR (Aphis craccivora) (protein)", "chain": "MEEFFVGKKFIVTGANAGIGETITKRLVQLGAHVFAVGRDPKKLPPAGPNLTPVCADVGDWDSYDIIKKLGPVHGLVNNAGVAFIESFFDMTQEGWDKTLNINARGIVRISQAVAQNMKDAGIKGSIVNVSSTISERAIPDHTSYCASKGAVNQVTRVMSIELGKLGIRTNNVNPTVVMTKMGAKAWSDPEKSNPILSRIPLGRFAECDDVANVTLFLLSDYSTYVNGVSIPVDGGFLAS", "notes": "coding region without predicted signal peptide (first 23 of at least 263 residues); pDEST17 N-terminal 6xHis tag, no cleavage told; E. coli ArcticExpress"}}, "key": {"purified protein [1]": {"substrate": "CC(=O)C=O", "test": "purified protein", "type": "biochemical, Aphis craccivora", "settings": "200 μM NADPH (methods; figure legend prints 200 mM), sodium phosphate pH 6.5, methylglyoxal varied"}, "purified protein [2]": {"substrate": "NC(=O)c1ccc[n+]([C@@H]2O[C@H](COP(=O)(O)OP(=O)(O)OC[C@H]3O[C@@H](n4cnc5c(N)ncnc54)[C@H](OP(=O)(O)O)[C@@H]3O)[C@@H](O)[C@H]2O)c1", "test": "purified protein", "type": "biochemical, Aphis craccivora", "settings": "200 mM xylitol fixed, NADP+ varied, 100 mM glycine pH 9.5, 3 mM MgCl2, paper speaks of it as constant of xylitol oxidation, varied: cofactor"}}}
{"protein": "B1", "values": [{"measurement": "Km", "setting": "purified protein [1]", "value": 1.3, "unit": "mM"}, {"measurement": "kcat", "setting": "purified protein [1]", "value": 0.23, "unit": "s⁻¹"}, {"measurement": "Km", "setting": "purified protein [2]", "value": 0.56, "unit": "mM"}, {"measurement": "kcat", "setting": "purified protein [2]", "value": 1.85, "unit": "s⁻¹"}]}
